# Assay results: publication PMC11417369, “DNA sequence and chromatin differentiate sequence-specific transcription factor binding in the human malaria parasite Plasmodium falciparum”
# Numbering of substitutions follows the chain as printed.
# T1: PF3D7_0420300 D1 (Plasmodium falciparum, UniProt Q8I1N6 1956-2015)
# T1 sequence: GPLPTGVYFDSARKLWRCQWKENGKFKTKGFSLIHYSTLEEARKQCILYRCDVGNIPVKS
# B1: CACACA_site2625 (dsDNA)
# DNA 1: AAATAAATGAAACACACACACACAAAAAAAAAAAAC
# DNA 2: GTTTTTTTTTTTTGTGTGTGTGTGTTTCATTTATTT
# B2: CACACA_site8059 (dsDNA)
# DNA 1: CATACATATAAACACACACACACACCCACCCACAAA
# DNA 2: TTTGTGGGTGGGTGTGTGTGTGTGTTTATATGTATG
# B3: CACACA_site366 (dsDNA)
# DNA 1: CACACCCACCAACACACACACACACCCACCCATATA
# DNA 2: TATATGGGTGGGTGTGTGTGTGTGTTGGTGGGTGTG
# B4: CACACA_negctrl_site1134 (dsDNA)
# DNA 1: GTTTGATAACACCTACAAACTCTTTTTTTTTTTTTT
# DNA 2: AAAAAAAAAAAAAAGAGTTTGTAGGTGTTATCAAAC
# B5: CACACA_negctrl_site73 (dsDNA)
# DNA 1: TTGATGTATACAATGTAGATTATTTAATATTTCAAC
# DNA 2: GTTGAAATATTAAATAATCTACATTGTATACATCAA
# B6: CACACA_negctrl_site1797 (dsDNA)
# DNA 1: AGATTATATATATGTATATATGTATATATTTATATA
# DNA 2: TATATAAATATATACATATATACATATATATAATCT
# B7: CACACA_negctrl_site461 (dsDNA)
# DNA 1: AGATATAGGAAAATAATATATATATATTTTTTTTTT
# DNA 2: AAAAAAAAAATATATATATATTATTTTCCTATATCT
# B8: CACACA_site2917 (dsDNA)
# DNA 1: ACCATACATACATACACACACACACCCATATATATA
# DNA 2: TATATATATGGGTGTGTGTGTGTATGTATGTATGGT
# B9: CACACA_site518 (dsDNA)
# DNA 1: ATAATTAACAAATACACACACACACCCCCACAAAAA
# DNA 2: TTTTTGTGGGGGTGTGTGTGTGTATTTGTTAATTAT
# B10: CACACA_negctrl_site1642 (dsDNA)
# DNA 1: TGTTGCAAAACAAAAAAAAAAAAAAAAAATAATAAT
# DNA 2: ATTATTATTTTTTTTTTTTTTTTTTGTTTTGCAACA
# B11: CACACA_site6306 (dsDNA)
# DNA 1: AGCACACGCAGACACACACACACACGCACACGCACA
# DNA 2: TGTGCGTGTGCGTGTGTGTGTGTGTCTGCGTGTGCT
# B12: CACACA_negctrl_site608 (dsDNA)
# DNA 1: GTATATATATATATATATATAATAGTAACTTTTACT
# DNA 2: AGTAAAAGTTACTATTATATATATATATATATATAC
# B13: CACACA_negctrl_site942 (dsDNA)
# DNA 1: ATATTATGAAGGGATATTTTCAAAAATATTAGGAGA
# DNA 2: TCTCCTAATATTTTTGAAAATATCCCTTCATAATAT
# B14: CACACA_site8011 (dsDNA)
# DNA 1: AGCACCCACCAACACACACACACACCCACCCACCCA
# DNA 2: TGGGTGGGTGGGTGTGTGTGTGTGTTGGTGGGTGCT
# B15: CACACA_negctrl_site754 (dsDNA)
# DNA 1: TATATTTGTACATGATATTTTTTTTTTCTTTTAAAA
# DNA 2: TTTTAAAAGAAAAAAAAAATATCATGTACAAATATA
# B16: CACACA_negctrl_site610 (dsDNA)
# DNA 1: ATTATAAGAATTAAAAGAAACAAAATTTTAATTATA
# DNA 2: TATAATTAAAATTTTGTTTCTTTTAATTCTTATAAT
# B17: CACACA_negctrl_site1686 (dsDNA)
# DNA 1: ACAAGTGTATATGTTATATATATATATATATATATA
# DNA 2: TATATATATATATATATATATAACATATACACTTGT
# B18: CACACA_negctrl_site54 (dsDNA)
# DNA 1: AATAAAAAAAAAATATATATTTTTTTTTTTTTTTTT
# DNA 2: AAAAAAAAAAAAAAAAATATATATTTTTTTTTTATT
# B19: CACACA_negctrl_site83 (dsDNA)
# DNA 1: GTGTGGTTACAGACACGAACACATTTTTTAAATATT
# DNA 2: AATATTTAAAAAATGTGTTCGTGTCTGTAACCACAC
# B20: CACACA_negctrl_site1016 (dsDNA)
# DNA 1: TATATTCCACTCATTGATTTTCTCTTCTCACAAAAA
# DNA 2: TTTTTGTGAGAAGAGAAAATCAATGAGTGGAATATA
# B21: CACACA_site8069 (dsDNA)
# DNA 1: ACATAATTAACAAATACACACACACCCACCCACAAA
# DNA 2: TTTGTGGGTGGGTGTGTGTGTATTTGTTAATTATGT
# B22: CACACA_site638 (dsDNA)
# DNA 1: AATACACGCAAACACACACACACACCCACATATATA
# DNA 2: TATATATGTGGGTGTGTGTGTGTGTTTGCGTGTATT
# B23: CACACA_site7104 (dsDNA)
# DNA 1: B22 DNA 1 with T3C, A6G, A11G, C26G
# DNA 2: B22 DNA 2 with G11C, T26C, T31C, A34G
# B24: CACACA_negctrl_site1632 (dsDNA)
# DNA 1: AATTCACATGTGAACTAAAAGAATATTATATATATA
# DNA 2: TATATATATAATATTCTTTTAGTTCACATGTGAATT
# B25: CACACA_site639 (dsDNA)
# DNA 1: AAAATACACGCATACACACACACACCCACCCATATA
# DNA 2: TATATGGGTGGGTGTGTGTGTGTATGCGTGTATTTT
# B26: CACACA_site6305 (dsDNA)
# DNA 1: CACACGCACGAACACACACACACACGCACGCACATA
# DNA 2: TATGTGCGTGCGTGTGTGTGTGTGTTCGTGCGTGTG
# B27: CACACA_site240 (dsDNA)
# DNA 1: TTTATTTATTAATACACACACACACCCCCACAAAAT
# DNA 2: ATTTTGTGGGGGTGTGTGTGTGTATTAATAAATAAA
# B28: CACACA_negctrl_site706 (dsDNA)
# DNA 1: TTTCTTATATTATATAAATATATAGATGTTAATGGT
# DNA 2: ACCATTAACATCTATATATTTATATAATATAAGAAA
# B29: CACACA_negctrl_site1462 (dsDNA)
# DNA 1: ATTTCTTTTTTTTTTTTTTTTAATGTAAAACATTTT
# DNA 2: AAAATGTTTTACATTAAAAAAAAAAAAAAAAGAAAT
# B30: CACACA_negctrl_site251 (dsDNA)
# DNA 1: AAGAATGTTATATTATGATGCTGTCTTTTTTTAAGA
# DNA 2: TCTTAAAAAAAGACAGCATCATAATATAACATTCTT
# B31: CACACA_negctrl_site899 (dsDNA)
# DNA 1: AATAAATAAATAAATATATATATATATATATATATG
# DNA 2: CATATATATATATATATATATATTTATTTATTTATT
# B32: CACACA_site492 (dsDNA)
# DNA 1: TAAACATACATATACACACACACACCCACACCCACA
# DNA 2: TGTGGGTGTGGGTGTGTGTGTGTATATGTATGTTTA
# Biological target: T1, PF3D7_0420300 D1
# Assay: gcPBM; about 25 ug protein; PBS, 1% milk, 0.2 mg/ml BSA, salmon testes DNA, 0.03% Triton X-100
# Conditions: tags: N-terminal GST (pGEX-4T-1), kept; label: surface-attached array probe
row,Binder,binding signal
1,B1,"10.5 ln median PBM intensity, better of two orientations"
2,B2,"10.5 ln median PBM intensity, better of two orientations"
3,B3,"10.4 ln median PBM intensity, better of two orientations"
4,B4,"9.08 ln median PBM intensity, better of two orientations"
5,B5,"9.09 ln median PBM intensity, better of two orientations"
6,B6,"9.11 ln median PBM intensity, better of two orientations"
7,B7,"9.11 ln median PBM intensity, better of two orientations"
8,B8,"10.4 ln median PBM intensity, better of two orientations"
9,B9,"10.6 ln median PBM intensity, better of two orientations"
10,B10,"9.09 ln median PBM intensity, better of two orientations"
11,B11,"10.5 ln median PBM intensity, better of two orientations"
12,B12,"9.1 ln median PBM intensity, better of two orientations"
13,B13,"9.11 ln median PBM intensity, better of two orientations"
14,B14,"10.6 ln median PBM intensity, better of two orientations"
15,B15,"9.1 ln median PBM intensity, better of two orientations"
16,B16,"9.07 ln median PBM intensity, better of two orientations"

row,Binder,binding signal
1,B17,"9.1 ln median PBM intensity, better of two orientations"
2,B18,"9.09 ln median PBM intensity, better of two orientations"
3,B19,"9.09 ln median PBM intensity, better of two orientations"
4,B20,"9.1 ln median PBM intensity, better of two orientations"
5,B21,"10.5 ln median PBM intensity, better of two orientations"
6,B22,"10.5 ln median PBM intensity, better of two orientations"
7,B23,"10.5 ln median PBM intensity, better of two orientations"
8,B24,"9.11 ln median PBM intensity, better of two orientations"
9,B25,"10.5 ln median PBM intensity, better of two orientations"
10,B26,"10.4 ln median PBM intensity, better of two orientations"
11,B27,"10.5 ln median PBM intensity, better of two orientations"
12,B28,"9.08 ln median PBM intensity, better of two orientations"
13,B29,"9.11 ln median PBM intensity, better of two orientations"
14,B30,"9.08 ln median PBM intensity, better of two orientations"
15,B31,"9.11 ln median PBM intensity, better of two orientations"
16,B32,"10.4 ln median PBM intensity, better of two orientations"
